Test results from patent US20190307797A1 (MAX DELBR CK CENTRUM F R MOLEKULARE MEDIZIN IN DER …, published 2019).

Target: T1, purified BCMA (CD269) extracellular domain (human, UniProt Q02223 4-54)
T1 construct: also called BCMA extracellular domain; extracellular domain of CD269
T1 sequence: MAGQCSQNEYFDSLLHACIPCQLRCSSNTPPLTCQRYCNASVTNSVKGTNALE
Assay: co-crystallisation, crystal structure of the complex

B1: Fab fragment prepared from the mouse or chimeric antibody from which the CAR was derived (chimeric antibody J22.9-xi) (Fab, V domains shown)
VH: QVQLQQSGGGLVQPGGSLKLSCAASGIDFSRYWMSWVRRAPGKGLEWIGEINPDSSTINYAPSLKDKFIISRDNAKNTLYLQMSKVRSEDTALYYCASLYYDYGDAMDYWGQGTSVTVSS
VL: DIVMTQSQRFMTTSVGDRVSVTCKASQSVDSNVAWYQQKPRQSPKALIFSASLRFSGVPARFTGSGSGTDFTLTISNLQSEDLAEYFCQQYNNYPLTFGAGTKLELKR
notes: also called J22.9-xi Fab; Fab fragments prepared from mouse or chimeric antibodies
B1: binds.
